Test results taken from the nanobody polyreactivity screen of Harvey et al. (2022).

assay: yeast display, Sf9 membrane polyspecificity reagent, FACS + sequencing; frameworks hold sequencing errors
In short: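 In a synthetic yeast display library (Saccharomyces cerevisiae BJ5465), nanobody expression was induced with galactose for 36–48 hours. FACS gates were set low and high (top ~1%) using anti-HA fluorescence for expression and streptavidin fluorescence for binding of the Sf9 membrane reagent. Each polyreactivity label is drawn from the gate of origin.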

Row | Sequence | polyreactivity (PSR sort gate)
1 | QVQLVESGGGLVQAGGSLRLSCAASGSIFEPNAMGWYSQAPGKERELVAAISWNDGDTYYADSVKGRFTISRDNAKNTVYLQMNSLKPEDTAVYYCAAETGYAFDYWGQGTQVTVSS | low polyreactivity
2 | QVQLVESGGGLVQAGGSLRLSCAASGFIFDSYAMGWYRQAPGKVRELVATISRRGSSTYYADSVKGRFTISRDNAKNTVYLQMNSLKPEDNAVYYCAAGSISYYYKLYWGGYWGQGTQVTVSS | high polyreactivity
3 | QVQLVESGGGLVRAGGSLRLSCAASGSTFTNNAMGWYRQAPGKERELVAAITWIGGNTYYADTVKGRFTISRDNAKNTVYLQMNSLKPEDTAVYYCAADRRSRYHDVYGWLYYYWGQGTQVTVSS | low polyreactivity
4 | QVQLVESGGGLVQAGGSLRLSCAASGRIFVYYTMGWYRQAPGKERELVAAITGSGGSTYYADSVKGRFTISRDNAKNTVYLQMNCLKPEDTAVYYCAARYASTGGGYKYYYWGQGTQVTVSS | high polyreactivity
5 | QVQLVESGGGLVQAGGSLRLRCAASGSIFEEYAMGWSRPAPGKERELVAAITSRGGSTYYADSVKGRFTISRDNAKNNVYLQMNSLKPEDTAVYYCAAGVASLTTGSYDYWGQGTQVTVSS | low polyreactivity
6 | QVQLVESGGGLVQAGGSLRLSCAASGFIFPVYTMGWSRQAPGKERELVGAITQIGGSTHYADSVKGRFSISRDNAKNTVYIQMNSLTPDDTAVYYCNAVPSYGTEYDYWGQGTHVTVSS | low polyreactivity
7 | QVQLVESGGGLVQAGGSLRLSCAASGSISVVNMGWYRQAPGKERELVASITSSGSTTYADSVKGRFTISRDNAKNTVYLQMNSLKPEDTAGYYCAASSTGYGGSTYYYWGQGTQVTVSS | low polyreactivity
8 | QVQLVESGGGLVQAGGSLRLSCAASGSTIGDNAMGWYRQAPGKERELVASISWSGASTYYADSVKGRFTISRDNAKNTVYLQMNSLKPEDTAVYYCAVYYSYYSHLYHLLFSYWGQGTQVTVSS | low polyreactivity
9 | QVQLVESGGGLVQAGCSLRLSCAASGRTFNGYAMGWYRQAPGKERELVAAIASEGDTNYADSVKGRFTISRDNAKNTVYLQMNSLKPEDTAVYYCNADITRIWHFKYDYWGQGTQVTVSS | high polyreactivity
10 | QVQLVESGGGLVQAGGSLRLSCAASGSIFGYNDMGCYRQAPGKEREMVAAITTSGDSTYYADSVKGRFTISRDNAKNTVYLQMNSLKPEDTAVYYCNADGEVVDWYHPYYVEYDYWGQGTQVTVSS | low polyreactivity
11 | QVQLVESGGGLVQAGASLRLSSAASGSTFSRYAMGWYRQAPGKEREFVADITFRTSSTNYADSVKGRFTISRDNAKNTVYLQMNSLKPEDTAVYDCAADVIFTWLAYSTEYDYWGQGSQVTVSS | low polyreactivity
12 | QVQLVESAGGLVQAGGSLRLTCAASGRTYFPYAMGLYRQAPGKERELVAAITWSATTTYYADSVKGRFTISRDNAKNTVYLQMISLKPEDTAVYYCNARGDYWGQGTQVTVSS | low polyreactivity
13 | QVQLVESGGGLVQAGCSLRLSCAASGFIFLTNGMGWYRQAPGTERELVAVITSSTGSTSYADSVKGRFTISRDIAKNTVYLQMNSLKPEDTAVYYCDDSTGVSWYYPSGSLDYWGQGTQVNVSS | low polyreactivity
14 | QVQLVESGGGLVQAGGSLRLSCAASGSTFGVNAMGWYRPAPGKERELVAAISRSGTSTYYADSVKGRFTISRDNAKNTVYLLMNSLKPEDTAVYYCAAQYFSGYHKYGYWGQGTQVTVSS | high polyreactivity
15 | QVQLVESGGGLVQAGGSLRLSCAASGIIFRYNAMGWSRQAPGKERELVATISKRGGSTRYADSVKGRFTISRDNAKNTVYLQMNSLKPEDTAVYYCAAQRPYYNGYDYWGQGTQVTVSS | high polyreactivity
16 | QVQLVESGGGLVQAGGSLRLSCAASGRTLAPYAMGWYRQAPGKERELVAISTIGGSTYYADSVKGRFTISRDNAKNTVYLQMNSLKPEDTAVYYCAADGNSTGVYLDGGEGFAYDYWGQGTQVTVSS | low polyreactivity

Row | Sequence | polyreactivity (PSR sort gate)
17 | QDQLVESAGGLVQAGGSLRLSCAASGRIFSRYAMGWYRQAPGKERELVAAITQSGTSTYYADSVKGRFTISRDIAKNTVYLQMNSLKAEDTAVYYCNAYSQYRYDYWGQGTQVTVSS | low polyreactivity
18 | QVQLVESGGGLVQAGGSLRLSCAASGSIFYHNSMGWYRQAPGKERELVAAITSGGSTHYADSVKGRFTISRDNAKNTVYLQMNSLKPEDTAVYYCNARDRRRTNLLDYWGQGTQVTVSS | low polyreactivity
19 | QVQLVESGGGLVQAGGSLRLSCAASGRIFSKNAMGWYRKAPGKERELVAAISWSGGSTYYADSVKGRFTISRDNAKNTVYLQMNSLKPEDTAVYYCAADSPRYGGYGYWGQGTQVTVSS | low polyreactivity
20 | QVQLVESGGGLVQAGGSLRLSCAASGSIFGVNAMGWYRQAPGKERELVASITGGDSTNYADSVKGRFTISRDNAKNTVYLQMNSLKPEDTAVYYCAKDHYYRYEEGDYWGQGTQVTVSS | low polyreactivity
21 | QVQLVESGGGLVQAGGSLRLSCAASGGTFSKYAMGWYRQAPGKEREFVAAITVSGGGTYYADSVKGRFTISRDNAKNPVYLQMNSLKPEDTAVYYCAADLAWTASDYWGHGTQVTVSS | low polyreactivity
22 | QVQLVESGGGLFQEGGSLRLSCAASGRIFGPYDMGWYRQAPGKERELVAAISQRGGTTYYADSVKGRFTISRDNAKNTVYLQMNSLKPEVTAVYYCAPKTYGWGQGTQVNVSS | high polyreactivity
23 | QVQLVESGGGLVQAGGSLRLSCAASGSIFGPYAMGWYRQAPGKERELVAAITKSGGSTYYADSVKGRFTISRDNAKNTVYLQMNSLKPEDTSVYYCAADYGHEYWGQGTQVTVSS | low polyreactivity
24 | QVQLVESGGGLDQAGGSLRLSCAASGFTFWYYAMGWYRQAPGKERYLVATISSSGGSTYYADSVKGRFTISRDTAMNTVYLQMNSLKPEDTAVYYCNADDNPVWEYDYWGQGTLVTVSS | low polyreactivity
25 | QVQLVESGGGLVQAGGSLRLSCAASGFIFQRNAMGWYRQAPGKERELVAAIRGTGGSTYYADSVKGRFTISRDNAKNTVYLQMNSLKPEDTAVYYCNRLSSYHMDYWGQGTQVTVSS | high polyreactivity
26 | QVQLVESGGGLVQAGGSLRLSCAASGSIFSLYAMGWYRPAPGKERELVAAISDGTGTNYADSVKGRFTISRDNAKNTVYLQMNSLKPVDTAVYYCATETYWYLPYYGDVEGNYWGQGTQVTVSS | low polyreactivity
27 | QVQLVESGGGLVQAGGSLRLSCAASGFTFRTNAMGWYRQAPGKERELVAVISRRGGSTYYADSVKGRFTISRDNAKNTVYLQMNSLKPEDTGVYYCNAGDGTVGRTYYRAYDYWGQGTQVTVSS | high polyreactivity
28 | QVQHVESGGGLVQAGGSLRLSCAASGRTFYSYAMGWYRQAPGKERELVAAISGRGGRTYYADSVKGRFTISRDNAKNTVYLQMNSLKPEDSAVYFCAKGGYAIRYYGFDYWGQGTQVTVSS | high polyreactivity
29 | HVQLVESAGGLVQEGGSLRVSCAASGFTFSFYAMGGYRQAPGKERELVAAISWNSGSTYYADSVKGRFTISRDNAKNTVYLQMNSLKPADTAVYYCAADVQRYRGITYYYWGQGTPVTVSS | high polyreactivity
30 | QVQLVESGGRLVQAGGSLRLSCAASGIIIRKYARGWYRPAPGKVRELVAAITTRGSRTYSADSVKGRFTISRDNAKNTVYLQMNSLKPEDTAVYYCAADRYTVRMDYWGQGTQVTVSS | high polyreactivity
31 | PVQLQESGGGLVQAGGSLRLSCAASGNIFDADIMGWYRQAPGKERELVACIADGGSTNYADSVKGRFTISRDNAKNTVYLQMNSLKPEDTAVYYCAAIAYPDIPTCFDYDSDYFIRGQGTQVTVSS | low polyreactivity
32 | QVQLVESGGGLVQAGGSLRLSCAASGRTFSPNAMGWYRQAPGKERELVASITAIGSRTYYADSVKGRFTISRDKAKNTVYLQMNSLKPEDTAVYYCAKDDELYGTKMYSWGQGTQVTVSS | low polyreactivity
